Laboratory results: CN112010969A (UNIV NANCHANG, dated 2020)

Target: T1, 增强绿色荧光蛋白 (enhanced green fluorescent protein, EGFP) (Aequorea victoria (engineered mutant), UniProt P42212 1-238 = GFP, limits assumed)
T1 construct: also called EGFP蛋白
Assay: biolayer interferometry: nanobody coupled by EDC/s-NHS to AR2G probe, association 300 s, dissociation 120 s in PBS

B1: 高亲和力增强绿色荧光蛋白纳米抗体 (anti-EGFP nanobody), clone 4-28 (VHH)
VHH: QVQLVESGGGLVQPGGSLRLSCAASGSRFSIHTMGWYRQAPGKQRELVATITWGGRQNYADSVKGRFTINRDNDKNTVDLQMDSLKPEDTAVYYCNVRPISNGPDYWGQGTQVTVSS
notes: Alpaca VHH selected by phage display; The purified protein was about 20 kD by SDS-PAGE; also called 抗EGFP纳米抗体; 编号4-28; not shown: Expressed from PET25b in E. coli Rosetta and purified on a nickel column
B1 was tested, and the Kd was 0.0967 nM.
